Molecular target: human recombinant FVIII (Advate) (human, UniProt P00451 20-2351)
Test: ELISA

Sequence of human recombinant FVIII (Advate) (P00451 20-2351): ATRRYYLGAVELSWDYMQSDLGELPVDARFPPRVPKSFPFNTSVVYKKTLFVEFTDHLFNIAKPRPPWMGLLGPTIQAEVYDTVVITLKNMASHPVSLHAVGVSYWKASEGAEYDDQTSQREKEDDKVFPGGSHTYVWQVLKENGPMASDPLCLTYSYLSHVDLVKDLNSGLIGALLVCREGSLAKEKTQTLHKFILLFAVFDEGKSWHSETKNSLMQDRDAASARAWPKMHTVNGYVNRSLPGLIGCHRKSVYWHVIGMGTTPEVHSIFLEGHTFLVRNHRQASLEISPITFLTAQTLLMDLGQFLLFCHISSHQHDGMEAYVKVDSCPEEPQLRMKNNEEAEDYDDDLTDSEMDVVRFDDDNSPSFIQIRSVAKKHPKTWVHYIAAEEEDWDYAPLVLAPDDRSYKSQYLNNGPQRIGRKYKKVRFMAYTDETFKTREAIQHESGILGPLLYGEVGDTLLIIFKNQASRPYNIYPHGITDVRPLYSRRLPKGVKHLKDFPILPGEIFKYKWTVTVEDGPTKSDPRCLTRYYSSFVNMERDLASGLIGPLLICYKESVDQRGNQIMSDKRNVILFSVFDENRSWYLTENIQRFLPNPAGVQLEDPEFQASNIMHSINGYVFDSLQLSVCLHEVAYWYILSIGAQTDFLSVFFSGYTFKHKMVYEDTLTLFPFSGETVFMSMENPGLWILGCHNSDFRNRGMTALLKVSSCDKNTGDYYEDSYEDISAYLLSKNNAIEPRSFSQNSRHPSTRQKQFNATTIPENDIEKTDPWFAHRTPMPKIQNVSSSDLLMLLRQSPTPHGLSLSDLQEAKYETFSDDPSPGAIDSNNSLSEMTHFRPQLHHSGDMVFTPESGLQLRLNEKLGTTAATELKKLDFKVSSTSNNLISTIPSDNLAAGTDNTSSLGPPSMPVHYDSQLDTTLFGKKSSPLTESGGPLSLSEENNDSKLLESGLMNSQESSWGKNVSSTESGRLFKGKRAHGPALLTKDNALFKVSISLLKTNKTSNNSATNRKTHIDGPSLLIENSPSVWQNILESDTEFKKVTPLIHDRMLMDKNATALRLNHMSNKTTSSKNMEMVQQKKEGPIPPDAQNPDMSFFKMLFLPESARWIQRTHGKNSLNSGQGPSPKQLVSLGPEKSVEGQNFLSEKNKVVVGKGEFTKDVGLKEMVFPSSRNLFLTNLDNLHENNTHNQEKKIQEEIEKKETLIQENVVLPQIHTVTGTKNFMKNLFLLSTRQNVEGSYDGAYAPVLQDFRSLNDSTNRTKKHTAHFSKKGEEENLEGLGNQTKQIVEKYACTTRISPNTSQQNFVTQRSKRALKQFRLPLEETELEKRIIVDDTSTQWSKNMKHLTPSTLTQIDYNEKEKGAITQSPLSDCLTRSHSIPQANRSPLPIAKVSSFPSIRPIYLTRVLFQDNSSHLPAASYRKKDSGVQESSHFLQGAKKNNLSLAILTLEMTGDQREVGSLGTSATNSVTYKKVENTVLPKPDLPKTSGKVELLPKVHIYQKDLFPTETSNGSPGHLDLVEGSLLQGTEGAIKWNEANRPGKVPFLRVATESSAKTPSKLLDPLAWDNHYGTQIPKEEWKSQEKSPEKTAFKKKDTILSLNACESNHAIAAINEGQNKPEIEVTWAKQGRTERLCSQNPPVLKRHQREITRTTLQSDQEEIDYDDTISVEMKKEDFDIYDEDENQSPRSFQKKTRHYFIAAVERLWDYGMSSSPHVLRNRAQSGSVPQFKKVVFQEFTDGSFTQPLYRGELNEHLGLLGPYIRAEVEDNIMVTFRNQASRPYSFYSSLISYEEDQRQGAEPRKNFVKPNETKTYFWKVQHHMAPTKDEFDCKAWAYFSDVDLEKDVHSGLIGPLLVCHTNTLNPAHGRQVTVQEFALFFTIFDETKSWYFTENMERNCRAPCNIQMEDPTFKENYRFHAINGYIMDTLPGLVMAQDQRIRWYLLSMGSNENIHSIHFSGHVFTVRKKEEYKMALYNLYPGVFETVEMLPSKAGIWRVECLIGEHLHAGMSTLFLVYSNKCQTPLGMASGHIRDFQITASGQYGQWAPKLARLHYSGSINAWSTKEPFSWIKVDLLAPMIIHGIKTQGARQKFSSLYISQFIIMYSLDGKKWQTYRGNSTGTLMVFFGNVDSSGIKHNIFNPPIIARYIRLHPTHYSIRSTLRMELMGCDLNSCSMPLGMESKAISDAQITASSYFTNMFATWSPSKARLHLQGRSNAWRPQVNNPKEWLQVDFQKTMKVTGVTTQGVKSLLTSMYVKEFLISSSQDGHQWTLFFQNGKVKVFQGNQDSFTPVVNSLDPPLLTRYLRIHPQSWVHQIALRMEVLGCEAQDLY

B1: recombinant CLEC4M-Fc chimera (Fc fusion, human, UniProt Q9H2X3 71-399, looked up)
chain: QVSKVPSSLSQEQSEQDAIYQNLTQLKAAVGELSEKSKLQEIYQELTQLKAAVGELPEKSKLQEIYQELTRLKAAVGELPEKSKLQEIYQELTRLKAAVGELPEKSKLQEIYQELTRLKAAVGELPEKSKLQEIYQELTELKAAVGELPEKSKLQEIYQELTQLKAAVGELPDQSKQQQIYQELTDLKTAFERLCRHCPKDWTFFQGNCYFMSNSQRNWHDSVTACQEVRAQLVVIKTAEEQNFLQLQTSRSNRFSWMGLSDLNQEGTWQWVDGSPLSPSFQRYWNSGEPNNSGNEDCAEFSGSGWNDNRCDVDNYWICKKPAACFRDE
For B1, which Kd is on record?
Its Kd is less than 100 pM.

From publication PMC7083068 (Journal of thrombosis and haemostasis : JTH, 2019)
